For one substance, relative density of the co-precipitated band (input set results are on record in article PMC3770571.

Assay [1] addresses endogenous LANA of KSHV infected PEL cells (KSHV (HHV8) (endogenous in BCBL1, JSC1, BC3)) (UniProt Q9QR71). Nature of the assay: co-IP.
Assay [2] has the same target. Nature of the assay: co-IP; lysate of 30 million BCBL1 cells treated with 2 U micrococcal nuclease (mononucleosomes), anti-LANA IP.

Chain of UniProt Q9QR71 (Q9QR71 whole entry): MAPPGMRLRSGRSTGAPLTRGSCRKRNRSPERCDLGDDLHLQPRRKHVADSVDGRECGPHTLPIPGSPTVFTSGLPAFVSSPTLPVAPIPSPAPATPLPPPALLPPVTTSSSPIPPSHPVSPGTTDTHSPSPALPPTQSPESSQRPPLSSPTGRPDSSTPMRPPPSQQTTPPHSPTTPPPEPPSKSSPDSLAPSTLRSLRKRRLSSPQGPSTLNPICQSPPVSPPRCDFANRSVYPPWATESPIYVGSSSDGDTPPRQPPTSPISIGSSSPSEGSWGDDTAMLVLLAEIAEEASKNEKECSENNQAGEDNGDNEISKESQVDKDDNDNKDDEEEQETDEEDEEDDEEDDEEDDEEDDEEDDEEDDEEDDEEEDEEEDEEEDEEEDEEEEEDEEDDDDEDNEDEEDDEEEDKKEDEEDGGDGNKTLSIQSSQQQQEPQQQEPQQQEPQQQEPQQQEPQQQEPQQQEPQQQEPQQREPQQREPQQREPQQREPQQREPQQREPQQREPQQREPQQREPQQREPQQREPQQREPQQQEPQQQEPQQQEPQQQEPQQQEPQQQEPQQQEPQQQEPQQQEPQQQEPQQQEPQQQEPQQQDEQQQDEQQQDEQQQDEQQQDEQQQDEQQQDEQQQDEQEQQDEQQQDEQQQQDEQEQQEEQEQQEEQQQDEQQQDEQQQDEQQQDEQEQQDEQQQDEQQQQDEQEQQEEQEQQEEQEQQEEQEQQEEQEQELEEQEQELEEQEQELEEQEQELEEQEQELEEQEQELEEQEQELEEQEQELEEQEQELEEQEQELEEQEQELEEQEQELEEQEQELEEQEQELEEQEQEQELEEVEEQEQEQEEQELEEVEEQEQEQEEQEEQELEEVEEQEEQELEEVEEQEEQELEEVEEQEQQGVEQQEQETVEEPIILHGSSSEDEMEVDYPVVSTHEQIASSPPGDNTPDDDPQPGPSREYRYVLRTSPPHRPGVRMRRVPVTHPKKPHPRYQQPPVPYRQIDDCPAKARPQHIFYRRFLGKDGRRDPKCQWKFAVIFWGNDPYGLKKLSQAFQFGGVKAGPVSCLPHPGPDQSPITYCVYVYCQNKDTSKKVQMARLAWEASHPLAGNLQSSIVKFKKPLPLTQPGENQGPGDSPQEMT

Turning to “endogenous histone H1 of human cells (from UniProt P16403 1-213) (natural protein)”, the relative density of the co-precipitated band (input set at 10%) in assay [1] amounted to 30%; in assay [2] it was 10%.
